We go through ten molecules from patent US20250114467A1 (SHANGHAI FUDAN ZHANGJIANG BIO PHARMACEUTICAL, published 2025).

First the molecules themselves.
T1: mouse DLL3 on overexpressing cells (plasmid pCMV3-mDLL3, MG58052-UT) (mouse, UniProt O88516 33-592)
T1 construct: whole, on cells
T1 sequence (looked up): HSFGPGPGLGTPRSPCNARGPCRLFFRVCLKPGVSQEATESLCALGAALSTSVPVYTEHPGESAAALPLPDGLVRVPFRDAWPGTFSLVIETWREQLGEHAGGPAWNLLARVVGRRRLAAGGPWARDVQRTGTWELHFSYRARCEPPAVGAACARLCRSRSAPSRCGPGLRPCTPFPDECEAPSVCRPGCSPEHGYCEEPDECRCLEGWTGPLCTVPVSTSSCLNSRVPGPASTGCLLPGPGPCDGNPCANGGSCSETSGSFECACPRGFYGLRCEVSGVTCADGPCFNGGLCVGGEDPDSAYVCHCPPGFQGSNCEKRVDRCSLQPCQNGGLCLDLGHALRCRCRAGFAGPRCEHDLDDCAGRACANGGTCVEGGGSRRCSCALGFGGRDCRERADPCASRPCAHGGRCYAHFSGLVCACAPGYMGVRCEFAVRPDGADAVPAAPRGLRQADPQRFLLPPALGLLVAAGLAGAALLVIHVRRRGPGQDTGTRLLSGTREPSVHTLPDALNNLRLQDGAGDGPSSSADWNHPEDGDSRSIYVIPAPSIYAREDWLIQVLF

T2: recombinant DLL3 protein (purchased from ACRO, DL3-H5255) (human, UniProt Q9NYJ7 27-479)
T2 construct: Bought; also called human DLL3 protein; hDLL3
T2 sequence (looked up): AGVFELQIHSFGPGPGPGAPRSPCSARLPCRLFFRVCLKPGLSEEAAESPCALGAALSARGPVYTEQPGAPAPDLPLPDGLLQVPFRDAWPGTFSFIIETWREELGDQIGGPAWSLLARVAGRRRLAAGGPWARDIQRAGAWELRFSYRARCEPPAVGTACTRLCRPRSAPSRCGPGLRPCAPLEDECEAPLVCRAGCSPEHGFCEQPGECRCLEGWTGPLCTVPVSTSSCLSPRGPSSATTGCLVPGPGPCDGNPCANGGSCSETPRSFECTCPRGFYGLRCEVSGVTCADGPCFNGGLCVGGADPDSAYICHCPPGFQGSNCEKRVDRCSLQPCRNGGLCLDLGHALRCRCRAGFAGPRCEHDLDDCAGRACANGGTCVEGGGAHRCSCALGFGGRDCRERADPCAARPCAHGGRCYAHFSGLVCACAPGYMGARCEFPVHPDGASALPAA

B1: ch32E8 (antibody, human IgG1, kappa, V domains shown)
VH: QVTLKESGPGILQPSQTLSLTCSFSGFSLSTSGMGVGWIRQPSGKGLEWLALIWWDDVKRYHPALKSRLTISKDTSSSQVFLKIASVDTADTATYYCARIAEVTGQVGLHYAMDYWGQGTSVTVSS
VL: QTVLTQSPAIMSASLGERVTMTCTASSSVNSSSLHWYQQKPGSSPKLWIYTTSNLASGVPARFSGSGSGTSYSLTISSMEAEDAATYYCHQFHRSPFTFGSGTKLEIKR
notes: Chimeric: murine variable regions on human IgG1 heavy and kappa light constant regions; also called chimeric antibody 32E8
B2: ch15G2 (antibody, human IgG1, kappa, V domains shown)
VH: EVQLQQSGPELEKPGASVRISCKASGYSFTDYNMHWVKQSNGKSLEWIGNIDPYYGGTNYNQKFEGKATLTVDKSSSTAYMQLKSLTSEDSAVYYCARGGNNYGDYWGQGTTLTVSS
VL: DIQMTQSPASLAASVGETVTITCRASENIYYSLAWYQQKQGKSPQLLIFNANSLEDGVPSRFSGSGSGTQYSMKINSMQPEDTATYFCKQAYDVPWTFGGGTKLEIKR
notes: Chimeric: murine variable regions on human IgG1 heavy and kappa light constant regions; also called chimeric antibody 15G2
B3: ch19C7 (antibody, human IgG1, kappa, V domains shown)
VH: EVQLQQSGPELVRPGASVRMSCKASGYTFTYYVMHWVKQKPGLGLEWIGYINPYNDGTEYNEKFKGKATLTSDKSSSTAFMELSSLTSEDSAVYYCARWLLREYAMDYWGQGTSVTVSS
VL: DIQMTQSPASLSASVGETVTITCRASDNIHNYLAWYQQKQGKSPQLLVYNAKTLADGVPSRFSGSGSGTQYSLKINSLQPEDFGSYYCQHFWSTPWTFGGGTKLEIKR
notes: Chimeric: murine variable regions on human IgG1 heavy and kappa light constant regions; also called chimeric antibody 19C7
B4: ch26D9 (antibody, human IgG1, kappa, V domains shown)
VH: EVQLQQSGPELVKPGASVKMSCKASGYTFTTYVMHWVKQKPGQGLEWIGYINPYNDDTNYNEKFKGKATLTSDKSSSTAYMELSSLTSEDSAVYYCARWGLTGTGDYYAMDYWGQGTSVTVSS
VL: DIQMTQSPASLSASVGETVTITCRASGNVHNYLAWYQQKQGRSPQVLVYNAKTLADGVPSRFSGSGSGTQYSLKINSLLPEDFGSYYCQHFWTTPWTFGGGTTLEIKR
notes: Chimeric: murine variable regions on human IgG1 heavy and kappa light constant regions; also called chimeric antibody 26D9
B5: ch23G2 (antibody, human IgG1, kappa, V domains shown)
VH: QVQLQQSGPELVRPGVSVKISCKGSGYTFTDYAIHWVKQSRAKSPEWIGIVSTDSGKTSFNQKFKGKATMTVDKSSTTAYMELVRLTSEDSAIYYCARNPYYDYDGYAMDYWGQGTSVTVSS
VL: DIQMTQSSSYLSVSLGGRVTIICKASDHINNWLAWYQQKPGNAPRLIISGATSLETGVPSRFSGSGSGKDYTLSITSLQTEDVATYYCQQYWSIPYTFGGGTKLEIKR
notes: Chimeric: murine variable regions on human IgG1 heavy and kappa light constant regions; also called chimeric antibody 23G2
B6: ch13C2 (antibody, human IgG1, kappa, V domains shown)
VH: EVKLVESGGGLVKPGGSLKLSCAASGFAFSSYDMSWVRQTPEKRLEWVATISSGGSYTYYPDSVKGRFTISRDNGRNTLYLQMSSLRSEDTALYYCASPLLGLRFAYWGQGTLVTVSA
VL: QAVVTQESALTTSPGETVTLTCRSSTGAVTTINYANWVQEKPDHLFTGLIGGTNNRAPGVPARFSGSLIGDKAALTITGAQTEDEAIYFCALYYSNHWVFGGGTKLTVLR
notes: Chimeric: murine variable regions on human IgG1 heavy and kappa light constant regions; also called chimeric antibody 13C2
B7: ch10B1 (antibody, human IgG1, kappa, V domains shown)
VH: DVKLVESGGGLVKPGGSLKLSCAASGFTFSNYTISWVRQTPEKRLEWVATFSSGGSYTYYSDSVKGRFTISRDNAKNTLYLQMSSLKSEDTAMYYCSRDRRSDGYYHLYAMDYWGQGTSVTVSS
VL: DIQMTQTTSSLSASLGDRVTISCRASQDISHYLNWYQQKPDGTVKLLIYYTSRLHSGVPSRFSGSGSGTAYSLTISNLEQEDIATYFCQQGYTLPLTFGAGTKLELKR
notes: Chimeric: murine variable regions on human IgG1 heavy and kappa light constant regions; also called chimeric antibody 10B1
B8: ch33F11 (antibody, human IgG1, kappa, V domains shown)
VH: EVQLQQSGPELVKPGASVKISCKTSGYTFTENTMHWVKQSHGESLEWIGGINPRNGVTSYNQKFKGKATLTVDKSSSTAYMELRSLTSEDSAVYYCTNTYYRDYFDYWGQGTTLTVSS
VL: NIVMTQSPKSMSMSVGERVTLSCKASENVGTYVSWYQQKPDQSPKLLIYGASNRYTGVPDRFTGSGSPTDFTLTISRMQAEDLAHYYCGQTYTYPLTFGAGTKLELKR
notes: Chimeric: murine variable regions on human IgG1 heavy and kappa light constant regions; also called chimeric antibody 33F11
B9: ch1A5 (antibody, human IgG1, kappa, V domains shown)
VH: EVQLQQSGPELVKPGASVKISCKTSGYTFTESAMHWVKQSHGKSLEWIGGINPNNGGISYSQKFKGKATLTVDKSSSTAYMELRSLTSEDSAVYYCGSSYYRDYFDYWGQGTTLTVSS
VL: NIVMTQSPESMSMSVGERVTLSCKASENVGTYVSWYQQKPDQSPKLLIYGASNRYTGVPDRFTGSGSATHFTLTISSVQAEDLADYHCGQSYSYPLTFGAGTKLELKR
notes: Chimeric: murine variable regions on human IgG1 heavy and kappa light constant regions, expressed in 293F cells; also called chimeric antibody 1A5
B10: ch6A2 (antibody, human IgG1, kappa, V domains shown)
VH: EVQLQQSGPELVKPGASVKISCKASGYTFTDYNMNWVKQSQGKSLEWIGYIYPYNGGTGYNQKFKTKATLTVDNSSSTAYMEFRSLTSEDSAVYYCARSDPYYTMDYWGQGTSVTVSS
VL: IIVMTQTPKFLLVSAGDRVTISCKASQSVNNDVAWYQQKPGQSPKLLIYFTSNRFTGVPDRFTGSGYGTDFTFTISSVQAEDLAVYFCQQDHNSPYTFGGGTKLEIKR
notes: Chimeric: murine variable regions on human IgG1 heavy and kappa light constant regions; also called chimeric antibody 6A2

The first test deals with T1, mouse DLL3 on overexpressing cells …. In words: flow cytometry on cells overexpressing mouse DLL3, APC goat anti-human IgG, MFI [left panel]. As to the method:
After washing with 80 μl of PBST (0.1% Tween20) for five times, 25 μl of HRP-labeled goat anti-human secondary antibody (Jackson, 1:10000) was added to each well and incubated at room temperature for 1 hour, discard the supernatant, and the wells were then washed seven times with 80 μl of PBST (0.1% Tween20). After adding 25 μl of TMB chromogen solution for 10 minutes, the reaction was terminated with 2M HCl, and the absorbance value at 450 nm was measured with a Microplate reader (purchased from Biotek, Elx808). […] The binding abilities of the chimeric antibodies to these cells were determined by flow cytometry to assess the cross-reactivity of the antibodies with different species. […] The chimeric antibodies, FDA027, and FDA031 were pre-diluted to 50 μg/ml, and further diluted in a 4-fold gradient across 8 concentration points, with 200 μL of the antibodies to be detected of different concentrations added to each well and incubated on ice for 30 minutes. […] After washing with PBS four times, 100 μL PBS was added to each well to resuspend the cells, which were then analyzed using CytoFLEX (Beckman).
For B1, the binding result is “no binding (tested: 50 µg/ml)”.
Still for that read-out and setting: under B2 stands “no binding (tested: 50 µg/ml)”.

A further test deals with T2, recombinant DLL3 protein (purchased …). In words: ELISA, plate-coated human DLL3 protein 1 µg/ml.
In general, EC50 refers to the midpoint of the concentration-response curve. For the molecule B3, the EC50 amounted to 8.66 ng/mL.
On the same count and under the same terms, in the case of B4 it was 11.8 ng/mL.
On to B5, for which the EC50 was 9.41 ng/mL.
For the molecule B6, the concentration for a half-maximal effect (EC50) was 395 ng/mL.
The same measure, in the same setting: under B1 stands 8.83 ng/mL; under B7, 16.8 ng/mL.
As to B2, the EC50 stood at 8.53 ng/mL.
Same read-out and setting: in the case of B8 it was 9.55 ng/mL.
Same read-out and setting: under B9 stands 9.21 ng/mL; under B10, 13.1 ng/mL.
